From the DeepSol protein solubility set come the findings set out here.

The series is described as follows: soluble on expression in E. coli; label from the status in PepcDB or PDB records.
Consider “MFGFGGFTRDLGIDLGTANTLVYVKGKGVVLREPSVVALQTDTKQIVAVGSDAKQMIGRTPGNVVALRPMKDGVIADYETTATMMKYYIQQAQKSNGFFSRKPYVMVCVPSGITAVERRAVIDATRQAGARDAYPIEEPFAAAIGANLPVWEPTGSMVVDIGGGTTEVAIISLGGIVTSQSVRVAGDDMDDSIIQYIKKSYNLMIGERTAEALKLEIGSAGEPEGIEPMEIRGRDLVSGLPKTVLIQPEEIADALKDTVDAIVESVKNTLEKTPPELAADIMDRGIVLTGGGALLRNLDKVISEETNMPVLVAEDPLDCVAIGTGKALDNIDLFKTAAR”, for which the “soluble on expression in E. coli” value is “not soluble”.

On to “QRKKAEEALRLSNIYNRSLIESSLDPLVTIGRDGKITDVNCATEQVTGYPRNDLIKTDFSDYFTEPENARAGYKQVFTDGEVRDYPLEIQHKDGHITPVLYNASVYRDENGEVIGVFAAARDIT”, for which the “soluble on expression in E. coli” value is reported as “not soluble”.

Turning to “MPDHLGDDMRKTKKDDTKEEEKNFQALDEGDIAVLKRYGQGPYAEQLKTLDADIENCLKKVNELSGVKESDTGLAPPALWDIAADKQAMQQEQPLQVARCTKIITSDKHDPRYLINVKQFAKFVVDLADSVAPTDIEEGMRVGVDRNKYQIHLPLPAKIDPTVTMMQVEEKPDVTYSDVGGCKDQIEKLREVVETPLLHPERYVNLGIEPPKGVLLYGPPGTGKTLCARAVANRTDACFIRVIGSELVQKYVGEGARMVRELFEMARTKKACLIFFDEIDAVGGARFDDGQGGDNEVQRTMLELINQLDGFDPRGNIKVLMATNRPDTLDPALMRPGRLDRKVEFALPDLAGRAHILKIHAKQMSVERDIRYDLLARLCPNSTGAEIRSVCTEAGMFAIRARRKVATEKDFLEAINKVVKGYAKFSATPRYLTHN”, the “soluble on expression in E. coli” value is given as “not soluble”.

With “MSPQKRVKNVQAQNRTSQGSSSFQTTLSAWKVKQDPSNSKNISKHGQNNPVGDYEHADDQAEEDALQMAVGYFEKGPIKASQNKDKTLEKHLKTVENVAWKNGLASEEIDILLNIALSGKFGNAVNTRILKCMIPATVISEDSVVKAVSWLCVGKCSGSTKVLFYRWLVAMFDFIDRKEQINLLYGFFFASLQDDALCPYVCHLLYLLTKKENVKPFRVRKLLDLQAKMGMQPHLQALLSLYKFFAPALISVSLPVRKKIYLQNSENLWKTALLAVKQRNRGPSPEPLKLMLGPANVRPLKRKWNSLSVIPVLNSSSYTKECGKKEMSLSDCLNRSGSFPLEQLQSFPQLLQNIHCLELPSQMGSVLNNSLLLHYINCVRDEPVLLRFHYWLSQTLQEECIWYKVNNYEHGKEFTNFLDTIIRAECFLQEGYYSCEAFLYKSLPLWDGLSCRSQFLQLVSWIPFSSFSEVKPLLFDHLAQLFFTSTIYFKCSVLQSLKELLQNWLLWLSMDIHMKPVTNSPLETTLGGSMNCVSKLIHYVGWLSTTAMRLESNNTFLLHFILDFYEKVCDIYINYDLPLVVLFPPGIFYSALLSLDTSILNQLCFIMHRYRKNLTAAKKNELVQKTKSEFNFSSKTYQEFNYYLTSMVGCLWTSKPFAKGIYIDPEILEKTGVAEYKNSLNVVHHPSFLSYAVSFLLQESPEERTVNVSSIRGKKWSWYLDYLFSQGLQGLKLFIRSSVHHSSIPRAEGINCNNQY”, the “soluble on expression in E. coli” value is reported as “soluble”.

For “MGSDKIHHHHHHMTVSMEQLEAFVAAAEHGSFSAAGRALRKAQSAVSTQVSNLEEDLGLELFSRQGRNPTLTAAGERLLSEARLILDRREHLIGVAASFEAHVEKRLVVAIDELYPEHALGELFAEFAVHFPHVELELLFPMMEDVSRLVLDGKADIGVMWRQEDLPAELGFHTIGWVQLKLVCGRNHPLANAVVGWEDLKRHRQIMVTVRTEGMERHRLRVAAEVWWVESHWVILQILKQGIGWALIPAHILARSPVAQDLAIPALQFDDGAHPVALELVWHKQRPSGPAATWLRKRFATTKIDMVAE”, the “soluble on expression in E. coli” value is on record as “not soluble”.

Regarding “MSLKHQFSRNELAYGQEGLDLLKEKTVAVLGVGGVGSFAAEALARTNIGHIILIDKDDVDITNVNRQIHALTTTIGQSKVTLMEERIKLINPDCKVTPLHMFYTEETYEDLFNNYDIDYFIDASDTIIYKVHLMKECLERGIKMISSMGAANKTDPTRFKIADISKTYMDPMAKIIRNKLKRQGIKKGVPVVFSDESPIVIREDVKATVGDANAINRKGQMPPSSNAFVPSTVGLICASYVVNDILKNIPVRRIKDKGNEGHHHHHH”, the “soluble on expression in E. coli” value is “soluble”.

As to “MSLVACECLPSPGLEPEPCSRARSQAHVYLEQIRNRVALGVPDMTKRDYLVDAATQIRLALERDVSEDYEAAFNHYQNGVDVLLRGIHVDPNKERREAVKLKITKYLRRAEEIFNCHLQRPLSSGASPSAVQLVQDPATGGTFVVKSLPRCHMVSRERLTIIPHGVPYMTKLLRYFVSEDSIFLHLEHVQGGTLWSHLLSQAHSRHSGLSSGSTQERMKAQLNPHLNLLTPARLPSGHAPGQDRIALEPPRTSPNLLLAGEAPSTRPQREAEGEPTARTSTSGSSDLPKAPGGHLHLQARRAGQNSDAGPPRGLTWVPEGAGPVLGGCGRGMDQSCLSADGAGRGCGRATWSVREEQVKQWAAEMLVALEALHEQGVLCRDLHPGNLLLDQAGHIRLTYFGQWSEVEPQCCGEAVDNLYSAPEVGGISELTEACDWWSFGSLLYELLTGMALSQSHPSGIQAHTQLQLPEWLSRPAASLLTELLQFEPTRRLGMGEGGVSKLKSHPFFSTIQWSKLVGTSLETHLRTLIHWLSGPKPDCPG”, the “soluble on expression in E. coli” value is recorded as “soluble”.

With “MDKNETRATIIRIGTDLISRQGFNATGIDAVLKEAGVPKGSFYYYFRSKEEFGLAVIDHFAERYDQRLDTFLNDEEVTPLNRIRNYLESALARLEQNQCSKGCLIGNLGQELADQHERFRGRLDEIFRSWKDRFAACLREAQRGGELAPELDAGVAAGFILSGLEGAILRTKVMKSPQPLRDFIEILFASVLRRQA”, the “soluble on expression in E. coli” value is “not soluble”.

On to “MAHHHHHHMLCGSRATFARTAVAFFNMKHFQTKKKYNLTPQNIYETFSTVLLPRDRLLRQSVSGGGGSRVLVLDAQQRVKGVYLPVFCMPHPSTVTNGSNSLGVAVADYTRSIEATLAMHKAGGGGGTAPTLPTVLVVLSHPQGLAYGTFRADGTPGVPMKNLALAPILANARTQQASTNIASTPLRTSGLGTVMPLLNVSHRHAEVVRDIYTELNECEHVAELAACSTFVWVQRDNMSSMTFEKAQSSERYWERAKNDGDSAAAPPPGAISFLDRRWVLLMDVALHPDTGLGLYARDPATGDRIVNATGVQSALCRGLLLLDHVPRTVANTARAANRETGVSG”, for which the “soluble on expression in E. coli” value is recorded as “soluble”.

In the case of “MSLKARTKIEKQVAASNEKLTAISPKVMTWAVRKVAGHVCFRTSAHKCTCGECGRQFDYEGKGKSVCCPYCGTRLQIKDTLKRTIKEAYYFSSLEVIDHLQVQRVFRLETTFRKGLPMEVDYWEACRLWLNAEGKSAVTARARTLSYYVDCFDWASEITLKRPNEVHWLIADTYVYPHYRLLPELKRNGMKGKLPDCYPMKLMKAVLTDSRMETILKSKDLHAVSYFVNRPLELDRCWQSYKVATRHHYRPSDMGLWADTIRLLEQCGKDICSPRYICPQNLKAEHDYWMNRHNQMEQKRRSQEQIQRAKRKEAEFYKEKSRYFGITITDKDLVISVLDTLEAFQAEGNALHHCVFQCEYYAKADSLILSAHDKEGNRIETIEFSLTEGKVIQSRGLCNTNTPHHDRIVRLVNAHAHQILAAKQTAEGHHHHHH”, the “soluble on expression in E. coli” value is “not soluble”.

“MDRISGLPDEVLVKILSFVPTKVAVSTSILSKRWEFLWMWLTKLKFGSKRYSESEFKRLQCFLDRNLPLHRAPVIESFRLVLSDSHFKPEDIRMWVVVAVSRYIRELKIYSSHYGEKQNILPSSLYTCKSLVILKLDGGVLLDVPRMVCLPSLKTLELKGVRYFKQGSLQRLLCNCPVLEDLVVNLSHHDNMGKLTVIVPSLQRLSLSTPSSREFVIDTPSLLSFQLVDRNDNSHTFLIENMPKLREAYINVPFADIKSLIGSITSVKRLAISSEVGYGEGFIFNHLEELTLWNKYSSNLLVWFLKNSPNLRELMLVSETDVSFFH”: the “soluble on expression in E. coli” value is reported as “soluble”.

For “DSNLLLKLGMLTGRIVPDNQAVYAKDFKPESILGASNLSFRGNVNISEGQSADVVFLNADNGILVQDLPFEVKLKKFHIDFYNTGMPRDFASDIEVTDKATGEKLERTIRVNHPLTLHGITIYQASFADGGSDLTFKAWNLGDASREPVVLKATSIHQFPLEIGKHKYRLEFDQFTSMNVEDMSEGAEREKSLKSTLNDVRAVTQEGKKYTNIGPSIVYRIRDAAGQAVEYKNYMLPVLQEQDYFWITGTRSGLQQQYRWLRIPLDKQLKADTFMALREFLKDGEGRKRLVADATKGAPAEIREQFMLAAENTLNIFAQKGYLGLDEFITSNIPKEQQDKMQGYFYEMLYGVMNAALDETIRRYGLPEWQQDEARNRFLLHSMDAYTGLTEYPAPMLLQLDGFSEVRSSGLQMTRSP”, the “soluble on expression in E. coli” value is on record as “not soluble”.

Consider “MTTILTYPFKNLPTASKWALRFSIRPLSCSSQLRAAPAVQTKTKKTLAKPNIRNVVVVDGVRTPFLLSGTSYKDLMPHDLARAALTGLLHRTSVPKEVVDYIIFGTVIQEVKTSNVAREAALGAGFSDKTPAHTVTMACISANQAMTTGVGLIASGQCDVIVAGGVELMSDVPIRHSRKMRKLMLDLNKAKSMGQRLSLISKFRFNFLAPELPAVSEFSTSETMGHSADRLAAAFAVSRLEQDEYALRSHSLAKKAQDEGLLSDVVPFKVPGKDTVTKDNGIRPSSLEQMAKLKPAFIKPYGTVTAANSSFLTDGASAMLIMAEEKALAMGYKPKAYLRDFMYVSQDPKDQLLLGPTYATPKVLEKAGLTMNDIDAFEFHEAFSGQILANFKAMDSDWFAENYMGRKTKVGLPPLEKFNNWGGSLSLGHPFGATGCRLVMAAANRLRKEGGQYGLVAACAAGGQGHAMIVEAYPK”, for which the “soluble on expression in E. coli” value is given as “not soluble”.

For the sequence “MASDWRRQSTSRGIPNEGQNDEKGKPLIGRSFLLEIENRILRTNVAEGLHISGATIIDSFDDASPQCVISDHPMAQKLEKAKKDDPLFKNEKMLKIMPALLRQAVNRNIKVRTPERFLNQMNTWLDRQGKTTSATTSNSTIRGKPSFGRENSAKIERTTPRLVPRMPRVSSDQTSSRPKEERCFLRIDVPGKRPEIRNVSKESFSIVYSGRDTGFSIFKAAESSLVERRQREYDSFLKGKYEPSKKTFKFDERDNYCQFCQKTILGDRKDHERTDEHRNKARTQGITQTMERIVLNARLRAERQEAALKRNQRKSRESVMFVEKSKRANVEYEYGENEIKANWLMLKANTVEKTTEKTSILSPRRRQKRMRSLSSQGDI”, the “soluble on expression in E. coli” value was “not soluble”.

As for “MQYIKIHALDNVAVALADLAEGTEVSVDNQTVTLRQDVARGHKFALTDIAKGANVIKYGLPIGYALADIAAGEHVHAHNTRTNL”, the “soluble on expression in E. coli” value is listed as “soluble”.
